Results published in US20250152742A1, “COMPOSITIONS AND METHODS FOR NEUROLOGICAL DISEASES” (Trames Bio, Inc., priority 2022, published 2025).

How the values were obtained:
[1] = tested on: engineered receptors and wild type nAchRa7 expressed in HEK293T cells; test: High throughput electrophysiology (IonFlux HT/Mercury automated patch clamp), EC50; type: cell-based, human
Procedure: To confirm the […] determined by plate reader as well as develop a better understanding of maximum current flow, the engineered receptors were subjected to high throughput electrophysiology system, as described below. For HEK293T studies, cDNAs encoding ion channels were cloned into pcDNA3.1 using standard recombination techniques. HEK293T cells from Clontech (Lenti-XTM 293T Cell Line) were cultured in DMEM supplemented with 10% FBS and 1% Pen/Strep to 40-50% confluence using standard cell culture protocols, transfected with ion channel plasmids at a concentration of 18 μg per 15 cm dish using Fugene 6, and grown for an additional 24 hours. Cells were then assayed on an electrophysiological system (IonFluxHT and/or Mercury, Fluxion Biosciences) in which dose-response relationships may be assessed through a microfluidics-based platform for establishing whole cell configurations. Ensemble plates were primed with extracellular buffer (140 mM NaCl, 5 mM KCl, 2 mM CaCl2), 1 mM MgCl2, 10 mM HEPES, and 10 mM glucose, pH 7.2 with NaOH, mOsm 310), intracellular buffer (145 mM CsCl, 2 mM CaCl2, 2 mM MgCl2, 10 mM HEPES, and 10 mM EGTA, pH 7.2 with CsOH, mOsm 305), as adapted from Lynagh and Lynch, and test compounds (stocks prepared fresh) diluted in extracellular buffer. Cells were then released from the plate with Accutase, centrifuged, resuspended in extracellular buffer, and loaded into Ensemble plates. Cells were then subjected to a standard protocol for priming, trapping, breaking, and establishing whole cell configuration, with cells held at −60 mV throughout the recording. After recording baseline, progressive doses of test compounds were applied using the IonFlux software to assess dose response relationships. Data were then analyzed off-line using custom Python scripts to convert data to .csv format, re-plot traces, and apply QC measurements to reject unstable recordings (i.e. thresholding based on access resistance and/or standard deviation in baseline, as well as artifact rejection). Peak currents were then calculated, and population data were fit using a 4-parameter logistic equation as described by the Hill Equation. Currents were measured on an automated patch clamp system (Fluxion Biosciences) following 1 second addition of drug and the EC50 values calculated are tabulated below in Table 22A and Table 22B below and Table 21A and Table 21B above (in Example 2).

[2] = tested on: engineered chimeric receptor SEQ ID NO: 33 and its mutants (human α7-nAChR ligand binding domain / human GlyRα1 ion pore domain) in Lenti-X 293T cells; test: YFP fluorescence quenching anion reporter plate reader assay (percent quench, EC50); type: cell-based
Method in brief: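 Percent quench compares mean YFP signal over the final 10 s with the 15 s baseline before ligand, added in iodide-containing extracellular solution (pH 7.2). Cells were LX293T carrying a YFP anion reporter, transiently transfected with the channel construct; plates were preincubated 30 min at 37 °C.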

B1: CODA536: engineered receptor: L131D, S172D in SEQ ID NO: 33 (protein)
chain: MRCSPGGVWLALAASLLHVSLQGEFQRKLYKELVKNYNPLERPVANDSQPLTVYFSLSLLQIMDVDEKNQVLTTNIWLQMSWTDHYLQWNVSEYPGVKTVRFPDGQIWKPDILLYNSADERFDATFHTNVDVNSSGHCQYLPPGIFKSSCPMDLKNFPMDVQTCKLKFGSWDYGGWSLDLQMQEADISGYIPNGEWDLVGIPGKRSERFYECCKEPYPDVTFTVTMRRRMGYYLIQMYIPSLLIVILSWISFWINMDAAPARVGLGITTVLTMTTQSSGSRASLPKVSYVKAIDIWMAVCLLFVFSALLEYAAVNFVSRQHKELLRFRRKRRHHKSPMLNLFQEDEAGEGRFNFSAYGMGPACLQAKDGISVKGANNSNTTNPPPAPSKSPEEMRKLFIQRAKKIDKISRIGFPMAFLIFNMFYWIIYKIVRREDVHNQ
modifications: synthetic sequence of chimeric LGIC
fold increased potency towards AZD-0328 compared to wild type control receptor ([1]; ligand AZD-0328): at least 10 fold
fold increased potency towards RG-3487 compared to wild type receptor ([1]; ligand RG-3487): at least 10 fold
YFP fluorescence quenching using TC-5619/Bradanicline (percent quench) ([2]; 1 nM brd (TC-5619/Bradanicline)): −1.24%
YFP fluorescence quenching using TC-5619/Bradanicline (percent quench) ([2]; 3 nM brd (TC-5619/Bradanicline)): 0.25%
YFP fluorescence quenching using TC-5619/Bradanicline (percent quench) ([2]; 10 nM brd (TC-5619/Bradanicline)): −2.57%
YFP fluorescence quenching using TC-6683 (percent quench) ([2]; 30 nM TC-6683): −22.285%
YFP fluorescence quenching using TC-5619/Bradanicline (percent quench) ([2]; 30 nM brd (TC-5619/Bradanicline)): 0.78%
YFP fluorescence quenching using ABT-126 (percent quench) ([2]; 50 nM abt (ABT-126)): −3.19%
YFP fluorescence quenching (percent quench) ([2]; 100 nM CNL002): 71.72%
YFP fluorescence quenching using ABT-126 (percent quench) ([2]; 100 nM abt (ABT-126)): 7.58%
YFP fluorescence quenching using AZD-0328 (percent quench) ([2]; 100 nM azd0328): 51.44%
YFP fluorescence quenching using TC-5619/Bradanicline (percent quench) ([2]; 100 nM brd (TC-5619/Bradanicline)): 4.51%
YFP fluorescence quenching using TC-6683 (percent quench) ([2]; 300 nM TC-6683): −23.926%
YFP fluorescence quenching using ABT-126 (percent quench) ([2]; 300 nM abt (ABT-126)): −1.65%
YFP fluorescence quenching using AZD-0328 (percent quench) ([2]; 300 nM azd0328): 77.12%
YFP fluorescence quenching using TC-5619/Bradanicline (percent quench) ([2]; 300 nM brd (TC-5619/Bradanicline)): 30.97%
YFP fluorescence quenching (percent quench) ([2]; 1 uM CNL002): 77.26%
YFP fluorescence quenching using ABT-126 (percent quench) ([2]; 1 uM abt (ABT-126)): 31.29%
YFP fluorescence quenching using TC-5619/Bradanicline (percent quench) ([2]; 1 uM brd (TC-5619/Bradanicline)): 44.41%
YFP fluorescence quenching using TC-6683 (percent quench) ([2]; 3 uM TC-6683): −20.514%
YFP fluorescence quenching (percent quench) ([2]; 10 uM ach (acetylcholine)): −12.91%
YFP fluorescence quenching (percent quench) ([2]; 30 uM CNL002): 77.5%
YFP fluorescence quenching using TC-6683 (percent quench) ([2]; 30 uM TC-6683): −3.078%
YFP fluorescence quenching using AZD-0328 (percent quench) ([2]; 30 uM azd0328): 79.26%
YFP fluorescence quenching using TC-6683 (percent quench) ([2]; 100 uM TC-6683): 7.37%
YFP fluorescence quenching (percent quench) ([2]; 100 uM ach (acetylcholine)): −20.88%
YFP fluorescence quenching (percent quench) ([2]; 1 mM ach (acetylcholine)): 79.85%
YFP fluorescence quenching (percent quench) ([2]; 3 mM ach (acetylcholine)): 79.98%
YFP fluorescence quenching using Facinicline, 30 nM fac ([2]; ligand Facinicline 30 nM): 24.15
YFP fluorescence quenching using Facinicline, 300 nM fac ([2]; ligand Facinicline 300 nM): 80.17
YFP fluorescence quenching using Facinicline, 10 uM fac ([2]; ligand Facinicline 10 uM): 81.34
YFP fluorescence quenching using Facinicline, 30 uM fac ([2]; ligand Facinicline 30 uM): 79.9
YFP fluorescence quenching using TC-6987, 1 uM tc6987 ([2]; ligand TC-6987 1 uM): −18.24
YFP fluorescence quenching using TC-6987, 10 uM tc6987 ([2]; ligand TC-6987 10 uM): −23.06
YFP fluorescence quenching using TC-6987, 500 uM tc6987 ([2]; ligand TC-6987 500 uM): −19.3
